Measurements published in patent publication US8450067B2, “Method for obtaining anti-idiotype antibodies” (Omrix Biopharmaceuticals Inc., priority 2002, dated 2013).
One block for each substance: values may come before it.

How the values were obtained:
[1] = target: synthetic cyclic peptide (3) AGLKNSQ; experiment: ELISA on coated Pep 3; control IgG 1 ug/ml
[2] = target: literature peptide …; experiment: ELISA on coated Pep 8 (Table 3); control IgG 1 ug/ml
[3] = target: literature peptide …; experiment: ELISA on coated Pep 11 (Table 3); control IgG 1 ug/ml
[4] = target: synthetic cyclic peptide (13) DWLYSRS; experiment: ELISA on coated Pep 13; control IgG 5 ug/ml
[5] = target: synthetic cyclic peptide (11) SLQRHPW; experiment: ELISA on coated Pep 11; control IgG 1 ug/ml
[6] = target: synthetic cyclic peptide (15) KYKRKYP; experiment: ELISA on coated Pep 15; control IgG 5 ug/ml
[7] = target: synthetic cyclic peptide (11) SLQRHPW; experiment: ELISA on coated Pep 11; control IgG 5 ug/ml
[8] = target: literature peptide …; experiment: ELISA on coated Pep 10 (Table 3); control IgG 1 ug/ml
[9] = target: synthetic cyclic peptide (8) PPPDLHA; experiment: ELISA on coated Pep 8; control IgG 5 ug/ml
[10] = target: synthetic cyclic peptide (5) VRVLLRS; experiment: ELISA on coated Pep 5; control IgG 1 ug/ml
[11] = target: synthetic cyclic peptide (14) PPQKHLL; experiment: ELISA on coated Pep 14; control IgG 5 ug/ml
[12] = target: literature peptide …; experiment: ELISA on coated Pep 11 (Table 3); control IgG 5 ug/ml
[13] = target: synthetic cyclic peptide (4) ASTIRAG; experiment: ELISA on coated Pep 4; control IgG 1 ug/ml
[14] = target: synthetic cyclic peptide (10) YGTPSSE; experiment: ELISA on coated Pep 10; control IgG 1 ug/ml
[15] = target: synthetic cyclic peptide (1) KHETTET; experiment: ELISA on coated Pep 1 (Table 3); control IgG 1 ug/ml
[16] = target: synthetic cyclic peptide (7) LSQPERW; experiment: ELISA on coated Pep 7; control IgG 5 ug/ml
[17] = target: literature peptide …; experiment: ELISA on coated Pep 3 (Table 3); control IgG 5 ug/ml
[18] = target: literature peptide …; experiment: ELISA on coated Pep 8 (Table 3); control IgG 5 ug/ml
[19] = target: synthetic cyclic peptide (15) KYKRKYP; experiment: ELISA on coated Pep 15; control IgG 1 ug/ml
[20] = target: literature peptide …; experiment: ELISA on coated Pep 7 (Table 3); control IgG 1 ug/ml
[21] = target: literature peptide …; experiment: ELISA on coated Pep 6 (Table 3); control IgG 5 ug/ml
[22] = target: synthetic cyclic peptide (2) PPNHSHL; experiment: ELISA on coated Pep 2; control IgG 5 ug/ml
[23] = target: synthetic cyclic peptide (5) VRVLLRS; experiment: ELISA on coated Pep 5; control IgG 5 ug/ml
[24] = target: synthetic cyclic peptide (9) GTTQWVL; experiment: ELISA on coated Pep 9; control IgG 1 ug/ml
[25] = target: literature peptide …; experiment: ELISA on coated Pep 5 (Table 3); control IgG 1 ug/ml
[26] = target: synthetic cyclic peptide (3) AGLKNSQ; experiment: ELISA on coated Pep 3; control IgG 5 ug/ml
[27] = target: synthetic cyclic peptide (4) ASTIRAG; experiment: ELISA on coated Pep 4; control IgG 5 ug/ml
[28] = target: literature peptide …; experiment: ELISA on coated Pep 3 (Table 3); control IgG 1 ug/ml
[29] = target: synthetic cyclic peptide (6) TQPPELP; experiment: ELISA on coated Pep 6; control IgG 5 ug/ml
[30] = target: synthetic cyclic peptide (1) KHETTET; experiment: ELISA on coated Pep 1; control IgG 1 ug/ml
[31] = target: synthetic cyclic peptide (13) DWLYSRS; experiment: ELISA on coated Pep 13; control IgG 1 ug/ml
[32] = target: synthetic cyclic peptide (2) PPNHSHL; experiment: ELISA on coated Pep 2; control IgG 1 ug/ml
[33] = target: literature peptide …; experiment: ELISA on coated Pep 9 (Table 3); control IgG 1 ug/ml
[34] = target: synthetic cyclic peptide (10) YGTPSSE; experiment: ELISA on coated Pep 10; control IgG 5 ug/ml
[35] = target: literature peptide …; experiment: ELISA on coated Pep 2 (Table 3); control IgG 5 ug/ml
[36] = target: literature peptide …; experiment: ELISA on coated Pep 10 (Table 3); control IgG 5 ug/ml
[37] = target: synthetic cyclic peptide (12) PLPDWRV; experiment: ELISA on coated Pep 12; control IgG 1 ug/ml
[38] = target: literature peptide …; experiment: ELISA on coated Pep 5 (Table 3); control IgG 5 ug/ml
[39] = target: synthetic cyclic peptide (14) PPQKHLL; experiment: ELISA on coated Pep 14; control IgG 1 ug/ml
[40] = target: literature peptide …; experiment: ELISA on coated Pep 9 (Table 3); control IgG 5 ug/ml
[41] = target: synthetic cyclic peptide (6) TQPPELP; experiment: ELISA on coated Pep 6; control IgG 1 ug/ml
[42] = target: synthetic cyclic peptide (1) KHETTET; experiment: ELISA on coated Pep 1; control IgG 5 ug/ml
[43] = target: literature peptide …; experiment: ELISA on coated Pep 2 (Table 3); control IgG 1 ug/ml
[44] = target: synthetic cyclic peptide (12) PLPDWRV; experiment: ELISA on coated Pep 12; control IgG 5 ug/ml
[45] = target: synthetic cyclic peptide (8) PPPDLHA; experiment: ELISA on coated Pep 8; control IgG 1 ug/ml
[46] = target: literature peptide …; experiment: ELISA on coated Pep 4 (Table 3); control IgG 1 ug/ml
[47] = target: synthetic cyclic peptide (1) KHETTET; experiment: ELISA on coated Pep 1 (Table 3); control IgG 5 ug/ml
[48] = target: synthetic cyclic peptide (9) GTTQWVL; experiment: ELISA on coated Pep 9; control IgG 5 ug/ml
[49] = target: literature peptide …; experiment: ELISA on coated Pep 4 (Table 3); control IgG 5 ug/ml
[50] = target: synthetic cyclic peptide (7) LSQPERW; experiment: ELISA on coated Pep 7; control IgG 1 ug/ml
[51] = target: literature peptide …; experiment: ELISA on coated Pep 7 (Table 3); control IgG 5 ug/ml
[52] = target: literature peptide …; experiment: ELISA on coated Pep 6 (Table 3); control IgG 1 ug/ml
[53] = system: immunoglobulin eluted from a peptide column bearing the peptide 706; experiment: ELISA of peptide column eluate with biotinylated peptides (706 column); format: binding, human; conditions: FIG. 3; biotinylated peptide 1 μg/ml
Experimental: (§1) To measure the binding efficacy of peptide column eluates (706 and 707) the following ELISA was performed:
(§2) Microtiter plates (Costar, USA) were coated overnight at 2-8° C. with 10 μg/ml NeutrAvidin (Pierce, USA) suspended in 0.1M, pH 8.8, of carbonate-bicarbonate buffer (Sigma USA). The coating solution was removed, washed three times with washing buffer (1×PBS) and 200 μl of blocking solution (freshly prepared 1% I Block, Tropix, USA) per well was added and incubated for 1 hour at 37° C. Coated and blocked plates can be stored at −20° C. for a month before use.
(§3) Tested samples diluted in the blocking solution were mixed in a separate tube with 1 μg/ml (final concentration) of the appropriate biotinylated peptide and the mixture was incubated for 1 hour at 37° C. 100 μl from each reaction tube was then transferred to the blocked microtiter plate and incubated at 37° C. for ½ hour. A 100 μl of 1:5000 Alkaline Phosphatase conjugate goat anti human IgG (Heavy and light chain from Jackson, USA) diluted in the blocking buffer was applied into the microtiter well and incubated for 1 hour. […] The measurement was done photometrically at 405 nm.

[54] = system: immunoglobulin elution peak from a peptide column bound with peptide 707; experiment: ELISA of peptide column eluate with biotinylated peptides (707 column); format: binding, human; conditions: FIG. 4; biotinylated peptide 1 μg/ml
Experimental: as §1, §2, §3

OD at 405 nm [1]: 0.011 OD | OD at 405 nm [2]: 0.044 OD | OD at 405 nm [3]: 0.043 OD | OD at 405 nm [4]: 0.078 OD | OD at 405 nm [5]: 0.068 OD | OD at 405 nm [6]: 0.068 OD | OD at 405 nm [7]: 0.068 OD | OD at 405 nm [8]: 0.042 OD | OD at 405 nm [9]: 0.046 OD | OD at 405 nm [10]: 0.009 OD | OD at 405 nm [11]: 0.083 OD | OD at 405 nm [12]: 0.041 OD | OD at 405 nm [13]: 0.013 OD | OD at 405 nm [14]: 0.06 OD | OD at 405 nm [15]: 0.044 OD | OD at 405 nm [16]: 0.048 OD | OD at 405 nm [17]: 0.043 OD | OD at 405 nm [18]: 0.041 OD | OD at 405 nm [19]: 0.037 OD | OD at 405 nm [20]: 0.043 OD | OD at 405 nm [21]: 0.043 OD | OD at 405 nm [22]: 0.009 OD | OD at 405 nm [23]: 0.008 OD | OD at 405 nm [24]: 0.045 OD | OD at 405 nm [25]: 0.043 OD | OD at 405 nm [26]: 0.011 OD | OD at 405 nm [27]: 0.011 OD | OD at 405 nm [28]: 0.043 OD | OD at 405 nm [29]: 0.009 OD | OD at 405 nm [30]: 0.013 OD | OD at 405 nm [31]: 0.069 OD | OD at 405 nm [32]: 0.009 OD | OD at 405 nm [33]: 0.044 OD | OD at 405 nm [34]: 0.048 OD | OD at 405 nm [35]: 0.041 OD | OD at 405 nm [36]: 0.041 OD | OD at 405 nm [37]: 0.043 OD | OD at 405 nm [38]: 0.048 OD | OD at 405 nm [39]: 0.079 OD | OD at 405 nm [40]: 0.045 OD | OD at 405 nm [41]: 0.007 OD | OD at 405 nm [42]: 0.016 OD | OD at 405 nm [43]: 0.04 OD | OD at 405 nm [44]: 0.045 OD | OD at 405 nm [45]: 0.043 OD | OD at 405 nm [46]: 0.04 OD | OD at 405 nm [47]: 0.043 OD | OD at 405 nm [48]: 0.044 OD | OD at 405 nm [49]: 0.039 OD | OD at 405 nm [50]: 0.045 OD | OD at 405 nm [51]: 0.052 OD | OD at 405 nm [52]: 0.046 OD
Substance: IgG purified from one donor (negative control) (antibody)

binding of 706 column eluate to biotinylated peptide [53]: not | binding of 707 column eluate to biotinylated peptide [54]: reacted even more strongly
Substance: GIWELSKEPSQKVWQMYYGT [Pep R706, reverse order of CDR1, used as a control]
